Results on 131 substances are retold here after the supplement of paper PMC12042874.

The series in a line: amyloid nucleation score (Sup35N fusion, yeast selection) (log enrichment); library NNK3; higher = more nucleation; inactive = no reads after selection. The gist of the method: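 Nucleation score is defined as the DiMSum log enrichment of output over input reads, with centring on the mode score of non-aggregating sequences. A minimum of 100 input reads was required for each sequence. Reads came from Illumina sequencing of plasmid inserts from psi-negative yeast expressing Sup35N fused to peptides of 20 random codons, induced with 100 μM copper sulfate for 24 hours and grown 7 days at 30°C on medium lacking adenine and uracil.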

± gives the uncertainty stated by the source.

For the substance WLNEM, the amyloid nucleation score entry was “inactive”.
With AICSPTLLDYYFLFKVLPGS the entry was “inactive”; with LCEEYYSINTWFRYVNVDIL, “inactive”; with ESRSFCLNCQGWVSSEA, “inactive”.
Then AIVESKPYLRSVL, with “inactive”; and LLCMTPNIVNSRLMTYYPCH, with “inactive”; and HGILEWMDCVLTLFTRVGMS, with “inactive”.
With IILLSGDSSSRIQEVKVGKK the entry was “inactive”; with VPIRECTMLSSMSWTGEPSY, “inactive”; with TSKVGLACKTIYVERSFWYF, “inactive”.
With WIFENMSYIRKICQWCKSYV, the amyloid nucleation score result is “inactive”.
As for FLLGPSLTPNSMG, the amyloid nucleation score result is “inactive”.
In the case of FFFVSSIRIICRV, the amyloid nucleation score result was “inactive”.
With TLVPVCGGSAGLVSSRKAAT the entry was “inactive”; with NVLALECVRDWT, “inactive”; with FFSDRLTSTGSMES, “inactive”.
As for FFYSAFENMMMALLKMRKFH, the amyloid nucleation score entry was “inactive”.
Then TEDHH, with “inactive”; and PVFQLNNFTYMRVPCLRGLN, with “inactive”; and HVTIYGPET, with “inactive”.
With LMLEISIHLLLYRVSISGYF, the amyloid nucleation score result was “inactive”.
As to RCDRVCGWGDRFNAGSGYRW, the amyloid nucleation score result is “inactive”.
Consider KVMTDIPDV, for which the amyloid nucleation score result is “inactive”.
In the case of MCYALMRTTWCGKLKIVLSG, the amyloid nucleation score result was “inactive”.
Then KWPQLIWSGTYFKPFWSING, with “inactive”; and PWCLNWVITDDCRFYCGLRV, with “inactive”; and KLQHIFLFFDRS, with 1.1 ± 0.11.
As for SCGEYWPLLSFMNCWAP, the amyloid nucleation score entry was “inactive”.
Then YRVRLCNGSCAQVWCLIRPP, with “inactive”.
As to NGGVLAGTMG, the amyloid nucleation score result is “inactive”.
Consider VVDGLMAVFLSHVRVAIYYV, for which the amyloid nucleation score entry was “inactive”.
Then FGNINLCMCFWKMEIECLTR, with “inactive”; and KLLSRYSTACMLRINLIRRY, with “inactive”; and GISRMGMAEDPDSGWSHDYY, with “inactive”.
Regarding PTSFLVYRMKRWFRASMSSR, the amyloid nucleation score entry was “inactive”.
For the substance FFARDVRSN, the amyloid nucleation score result is “inactive”.
With YFTYGRQCMVVLDCLVDRRG the entry was “inactive”.
With CVVNGDLVASLKSLFLGWCL the entry was “inactive”.
Then SWRPAICPLLVMKL, with “inactive”; and YSYIEGL, with “inactive”.
Turning to VRNKLNCKRSGA, the amyloid nucleation score result is “inactive”.
GYTVAKVNFNGWNRL gave an amyloid nucleation score of 0.453 ± 0.35.
With IENQSRCLLTNVATVN the entry was “inactive”; with GNNRGTVSWVERGAWALTKA, “inactive”.
Then VIPARADATGPKEHGWLQLQ, with “inactive”.
As for RRVFHQAFSGWSDLCIQRSG, the amyloid nucleation score entry is “inactive”.
In the case of RHWDVLK, the amyloid nucleation score result was “inactive”.
Turning to LQISSMIFELYIFDLMMVM, the amyloid nucleation score result is “inactive”.
QVLFAYIYLSLVNVSQG came in with an amyloid nucleation score of 1.03 ± 0.14.
Take KFGFLYPISCDVYGQDFLAL: the amyloid nucleation score result was “inactive”.
For the substance YFRYRSDVIAYISVIIGNLV, the amyloid nucleation score result is “inactive”.
With NRYYPVGNYCARTWQTFTFL, the amyloid nucleation score result was “inactive”.
Turning to MVMPGMFGSLRREWHSFFRM, the amyloid nucleation score entry is “inactive”.
On to GKIFMSVTFF, for which the amyloid nucleation score was found to be 2.43 ± 0.054.
For the substance SLTMNLFVRTASCGLASRVR, the amyloid nucleation score was -0.541 ± 1.7.
In turn, VSVFMKLVRFET displayed an amyloid nucleation score of 1.17 ± 0.091.
For YVDTAHHGSFENLECVEGLC, the amyloid nucleation score result was “inactive”.
With ELFDWTFLFPDSSINMWK the entry was “inactive”; with SVASRTSEGTGYSCIIRVFH, “inactive”.
Then LVGHEFTAGSNYDSDLGTV, with “inactive”.
In the case of VQWCPNVYTDSQVCRYVSSR, the amyloid nucleation score entry is “inactive”.
Then AGKSLLRVQYP, with “inactive”; and ALLYRERKYSMLVKFVVYRS, with “inactive”.
For CNVFWVPTVRLIFKMYKVSR, the amyloid nucleation score is 0.417 ± 0.36.
With SAYYCLCMLMGHHWGRNELY the figure was 0.277 ± 0.57; with FQIKT, 0.041 ± 0.81.
Take LIASLRIWPRESMPR: the amyloid nucleation score result was “inactive”.
In the case of IVQVV, the amyloid nucleation score entry is “inactive”.
In the case of NKYYVRSSFELVIVYA, the amyloid nucleation score worked out at 0.142 ± 0.32.
As to CAWVHIS, the amyloid nucleation score entry was “inactive”.
Then FVTRHLNFCM, with “inactive”; and FCMALRKRNFGRFMSKSKEY, with “inactive”.
RGSGILRVLTKSRWCICMGT: the amyloid nucleation score result is “inactive”.
Then DENVALFFLF, with “inactive”; and IHVDLYN, with “inactive”.
Then NREHMAISSCRLVKHCFFWT, with “inactive”.
Then WQPFD, with “inactive”; and CCMVNRGTRQVSRWIVPNWR, with “inactive”; and HYNVFGGRLSSSRNMYKGVY, with “inactive”.
NCRYIVAPMKQLYMGIEMVL: the amyloid nucleation score entry is “inactive”.
In turn, LDMSLACPRG yielded an amyloid nucleation score of -0.051 ± 0.77.
In the case of NVSPIGQISVNYGRMDCSEG, the amyloid nucleation score result was “inactive”.
Substance QLCFGVMLRCSCCGKQVWEK displayed an amyloid nucleation score of 1.84 ± 0.1.
Substance MESDCQRDHNFIRIKIKIGE returned an amyloid nucleation score of 1.65 ± 0.09.
Then QVTLWFKKNLSELM, with “inactive”; and QYVYLCRYLNMRPACYDMVV, with -0.329 ± 0.8.
On to FTWYRR, for which the amyloid nucleation score entry is “inactive”.
As for HWIHGRR, the amyloid nucleation score entry is “inactive”.
Then KSALYADLVGYLGSACMGSR, with “inactive”.
As to KPCSLIRWPIKASMFSYVHS, the amyloid nucleation score entry was “inactive”.
With DDHLGKVGSGFRIGICTLQN, the amyloid nucleation score result is “inactive”.
Then EYCKISD, with “inactive”; and FDLRSWCM, with “inactive”.
Turning to FHMFYRFSGDNGPKKFH, the amyloid nucleation score worked out at 0.607 ± 0.26.
Then HKNEVKWFFFQPGKEMLGGR, with “inactive”.
For the substance SYTSFSHSPCTVLMKTWPPK, the amyloid nucleation score result is “inactive”.
With RISYMSGDYRPSKCACVYAE, the amyloid nucleation score entry was “inactive”.
Then YSTVYIGSQVRVDDTLSMSA, with “inactive”; and RLTHLLHCYTI, with “inactive”; and LLIVNWVFRILVYRTTRGLR, with “inactive”.
For the substance SSITVF, the amyloid nucleation score entry was “inactive”.
As to CLSLKNERHQVFMSRIGNRA, the amyloid nucleation score result was “inactive”.
With TCAPMTITFSCHNNLFKC the figure was 2.65 ± 0.058; with SGRKR, “inactive”; with WANMTFTELSYIK, “inactive”.
Then GRTSWGRRR, with “inactive”; and GHVAHLINILYVNSTIPQTG, with “inactive”.
As to ILYNFEDVLWAGSLRIGLNL, the amyloid nucleation score result was “inactive”.
With NSLCSLVLTLIWWIKCPCDV the entry was “inactive”.
With NFMGVYLVWNFIVVFKVHYV, the amyloid nucleation score result is “inactive”.
For CSCWFFLVHNFNNIYRILWK, the amyloid nucleation score result is “inactive”.
Then TFQRFQLGHIRFRQVFSWIC, with -0.627 ± 1.4.
With LSCNDYNDG the entry was “inactive”.
Take NCPSWGGFGIATSGQR: the amyloid nucleation score entry is “inactive”.
In the case of GYNCALWDVGCLHVFRPYAN, the amyloid nucleation score result was “inactive”.
For the substance RSSVYGQLILVPHYFDCLNL, the amyloid nucleation score entry is “inactive”.
With RCFKLLNSTECCSKWVRAFS the entry was “inactive”; with PMYPGIVGSRAIMQRLVGCC, “inactive”; with NAGHICFVVVTKWREFASVY, “inactive”.
With CRSQMHWLYSQRQIMPVLRS the entry was “inactive”; with LKLSSC, 0.739 ± 0.17; with FNMFVKNN, “inactive”.
With FECMRELPRAPTKPGSWRHA the entry was “inactive”; with TNNRKRLYYWFERVTSE, “inactive”.
Turning to VLSMRHSNTGMARCTDW, the amyloid nucleation score entry was “inactive”.
Consider TYVKYKRILQQGIYAVVMNV, for which the amyloid nucleation score entry is “inactive”.
With FSFCIGRMCDLQALTASCLN the entry was “inactive”; with GIRVSLGVSFRECFNNSVSR, 2.43 ± 0.053; with GAMLRVGV, “inactive”.
With GLNLISISFRAGFAGMHRRA the figure was 1.82 ± 0.099.
With MTAGEIDRLLYVS the entry was “inactive”.
